# Laboratory results published in publication PMC4709657, “Construction of a subunit-fusion nitrile hydratase and discovery of an innovative metal ion transfer pattern” (Scientific Reports, 2016).
# T1: NHase-(BAP14K) (Pseudomonas putida, UniProt P97051+P97052)
# T1 construct: gene nthB; pET28a, E. coli; cobalt-loaded
# T1 sequence (P97052 1-217): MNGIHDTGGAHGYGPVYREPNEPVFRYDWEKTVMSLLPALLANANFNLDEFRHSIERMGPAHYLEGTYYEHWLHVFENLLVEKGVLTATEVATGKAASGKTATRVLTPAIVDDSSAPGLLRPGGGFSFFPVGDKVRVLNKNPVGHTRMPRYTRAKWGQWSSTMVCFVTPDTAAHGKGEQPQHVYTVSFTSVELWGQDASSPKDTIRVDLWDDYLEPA
# T1 sequence (P97051 1-210): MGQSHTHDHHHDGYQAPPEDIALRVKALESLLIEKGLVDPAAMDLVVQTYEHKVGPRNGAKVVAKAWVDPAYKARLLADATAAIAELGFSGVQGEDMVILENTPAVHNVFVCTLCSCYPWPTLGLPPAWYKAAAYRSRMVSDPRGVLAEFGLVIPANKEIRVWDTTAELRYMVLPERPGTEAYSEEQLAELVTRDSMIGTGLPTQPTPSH
# T1 sequence (O69769 1-127 partner): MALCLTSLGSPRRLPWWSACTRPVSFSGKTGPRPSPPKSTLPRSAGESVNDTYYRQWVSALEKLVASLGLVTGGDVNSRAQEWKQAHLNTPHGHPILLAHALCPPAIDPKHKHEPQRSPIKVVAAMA
# T2: wild-type NHase (Pseudomonas putida, UniProt P97051+P97052)
# T2 construct: gene nthA; tetramer alpha2beta2; EC 4.2.1.84; tag not clearly stated
# T2 sequence (P97051 1-210): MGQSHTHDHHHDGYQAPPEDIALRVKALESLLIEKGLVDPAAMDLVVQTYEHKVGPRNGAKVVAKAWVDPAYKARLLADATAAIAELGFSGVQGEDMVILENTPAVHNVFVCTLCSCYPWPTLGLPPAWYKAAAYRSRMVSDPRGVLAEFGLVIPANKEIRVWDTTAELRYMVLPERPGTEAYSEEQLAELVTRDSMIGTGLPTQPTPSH
# T2 sequence (P97052 1-217): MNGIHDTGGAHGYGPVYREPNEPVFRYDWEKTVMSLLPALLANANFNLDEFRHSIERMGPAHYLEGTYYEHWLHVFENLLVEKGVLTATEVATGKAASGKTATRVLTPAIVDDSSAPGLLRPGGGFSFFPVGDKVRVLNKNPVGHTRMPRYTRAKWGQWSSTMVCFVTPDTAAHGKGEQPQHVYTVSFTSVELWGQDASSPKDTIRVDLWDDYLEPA
# T3: NHase-(BA)P14K (Pseudomonas putida, UniProt P97051+P97052)
# T3 construct: gene nthB; pET28a, E. coli
# T3 sequence (P97052 1-217): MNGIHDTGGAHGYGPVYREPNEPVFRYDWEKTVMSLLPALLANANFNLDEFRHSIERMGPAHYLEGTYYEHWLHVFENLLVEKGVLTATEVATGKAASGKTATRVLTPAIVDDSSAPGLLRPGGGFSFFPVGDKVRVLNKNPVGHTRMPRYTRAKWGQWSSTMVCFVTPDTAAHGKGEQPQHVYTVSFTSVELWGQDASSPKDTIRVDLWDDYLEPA
# T3 sequence (P97051 1-210): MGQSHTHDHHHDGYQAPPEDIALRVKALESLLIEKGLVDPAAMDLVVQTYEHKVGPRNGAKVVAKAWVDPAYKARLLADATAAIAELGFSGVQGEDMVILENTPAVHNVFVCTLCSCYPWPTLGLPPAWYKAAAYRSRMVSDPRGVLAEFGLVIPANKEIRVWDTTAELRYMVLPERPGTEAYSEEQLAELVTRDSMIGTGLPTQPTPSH
# Tests used:
# [1] = biological target: T1, NHase-(BAP14K); assay: product tolerance: 3-cyanopyridine consumption with / without nicotinamide; format: biochemical; settings: 20 mM 3-cyanopyridine, 10 min
# [2] = biological target: T2, wild-type NHase; assay: as above; format: biochemical; settings: 20 mM 3-cyanopyridine, 10 min
# [3] = biological target: T3, NHase-(BA)P14K; assay: as above; format: biochemical; settings: 20 mM 3-cyanopyridine, 10 min
# [4] = substrate: N#Cc1cccnc1; assay: nicotinamide formation, A215; format: biochemical, Pseudomonas putida; settings: 10 mM KPB, 25 °C, 2 min, 10-200 mM substrate, cobalt enzyme
# Description: nicotinamide formation, A215 on wild-type NHase
# [5] = biological target: the molecule itself; assay: SEC; purified enzymes and marker proteins on a Superdex 200 10/300 GL column, 10 mM KPB; mass from the standard curve of marker proteins, oligomer inferred from the mass
molecule,measurement,setting,value
NC(=O)c1cccnc1 [nicotinamide],reduction ratio (with / without 0.5 M nicotinamide),[1],0.83
same,reduction ratio (with / without 0.5 M nicotinamide),[2],0.80
same,reduction ratio (with / without 0.5 M nicotinamide),[3],0.86
"wild-type NHase (Pseudomonas putida) (protein, tetramer alpha2beta2; EC 4.2.1.84; tag not clearly stated) chain 1: MGQSHTHDHHHDGYQAPPEDIALRVKALESLLIEKGLVDPAAMDLVVQTYEHKVGPRNGAKVVAKAWVDPAYKARLLADATAAIAELGFSGVQGEDMVILENTPAVHNVFVCTLCSCYPWPTLGLPPAWYKAAAYRSRMVSDPRGVLAEFGLVIPANKEIRVWDTTAELRYMVLPERPGTEAYSEEQLAELVTRDSMIGTGLPTQPTPSH chain 2: MNGIHDTGGAHGYGPVYREPNEPVFRYDWEKTVMSLLPALLANANFNLDEFRHSIERMGPAHYLEGTYYEHWLHVFENLLVEKGVLTATEVATGKAASGKTATRVLTPAIVDDSSAPGLLRPGGGFSFFPVGDKVRVLNKNPVGHTRMPRYTRAKWGQWSSTMVCFVTPDTAAHGKGEQPQHVYTVSFTSVELWGQDASSPKDTIRVDLWDDYLEPA",Km,[4],41.2 ± 7.7 mM
same,kcat,[4],335 ± 57.6 s⁻¹
same,kcat/Km,[4],8100 M⁻¹ s⁻¹
"NHase-(BA)P14K, fusion nitrile hydratase encoded by the gene (BA)P14K (enzyme, Pseudomonas putida NRRL-18668, β-subunit of the cobalt nitrile hydratase of Pseudomonas putida NRRL-18668 (B gene); MALDI-TOF indicated the full length of βα; linker, dipeptide proline-glycine; α-subunit of the cobalt nitrile hydratase of Pseudomonas putida NRRL-18668 (A gene); Same polypeptide as m1 but made with P14K co-expressed from the same plasmid; cobalt-containing (0.84 per βα); P14K is not part of the purified enzyme; …) MNGIHDTGGAHGYGPVYREPNEPVFRYDWEKTVMSLLPALLANANFNLDEFRHSIERMGPAHYLEGTYYEHWLHVFENLLVEKGVLTATEVATGKAASGKTATRVLTPAIVDDSSAPGLLRPGGGFSFFPVGDKVRVLNKNPVGHTRMPRYTRAKWGQWSSTMVCFVTPDTAAHGKGEQPQHVYTVSFTSVELWGQDASSPKDTIRVDLWDDYLEPAPGMGQSHTHDHHHDGYQAPPEDIALRVKALESLLIEKGLVDPAAMDLVVQTYEHKVGPRNGAKVVAKAWVDPAYKARLLADATAAIAELGFSGVQGEDMVILENTPAVHNVFVCTLCSCYPWPTLGLPPAWYKAAAYRSRMVSDPRGVLAEFGLVIPANKEIRVWDTTAELRYMVLPERPGTEAYSEEQLAELVTRDSMIGTGLPTQPTPSH",stoichiometry N,[5],2
